Measurements taken from patent US20200002426A1 (published 2020).

Key:
[1] = biological target: His tagged TGF-β1 (UniProt P01137 279-390); assay: BLI
[2] = biological target: His-tagged huPD-L1 (human, UniProt Q9NZQ7 19-238); assay: BLI
[3] = biological target: human PD-L1 on CHO-K1 cells (human, UniProt Q9NZQ7 19-290); assay: FACS binding
[4] = biological target: FITC labeled human PD-L1-Fc protein (human, UniProt Q9NZQ7 19-238, FITC labeled (sites not given)); assay: FACS blocking of PD-L1/PD-1
FITC labeled human PD-L1-Fc protein, sequence (Q9NZQ7 19-238): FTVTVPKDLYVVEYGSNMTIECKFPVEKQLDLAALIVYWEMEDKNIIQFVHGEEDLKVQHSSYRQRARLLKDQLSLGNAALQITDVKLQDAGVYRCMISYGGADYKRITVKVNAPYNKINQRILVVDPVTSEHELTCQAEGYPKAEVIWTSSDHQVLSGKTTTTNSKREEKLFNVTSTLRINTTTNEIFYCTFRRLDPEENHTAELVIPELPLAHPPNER

[5] = biological target: huTGF-β1 (human, UniProt P01137 279-390); assay: ELISA; simultaneous binding, detected with biotinylated hu PD-L1
huTGF-β1, sequence (P01137 279-390): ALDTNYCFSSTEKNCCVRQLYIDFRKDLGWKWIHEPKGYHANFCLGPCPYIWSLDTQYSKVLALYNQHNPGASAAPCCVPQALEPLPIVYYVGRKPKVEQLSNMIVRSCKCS

His-tagged huPD-L1, sequence (Q9NZQ7 19-238): as the sequence (Q9NZQ7 19-238) above
human PD-L1 on CHO-K1 cells, sequence (Q9NZQ7 19-290): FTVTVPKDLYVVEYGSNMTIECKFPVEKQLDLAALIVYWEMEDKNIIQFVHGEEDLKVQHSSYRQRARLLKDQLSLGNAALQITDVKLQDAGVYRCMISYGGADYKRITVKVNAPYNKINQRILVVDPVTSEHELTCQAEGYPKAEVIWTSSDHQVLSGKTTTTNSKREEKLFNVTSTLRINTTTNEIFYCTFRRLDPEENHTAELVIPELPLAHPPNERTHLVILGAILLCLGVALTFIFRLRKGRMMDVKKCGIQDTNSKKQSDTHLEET
His tagged TGF-β1, sequence (P01137 279-390): as the sequence (P01137 279-390) above

B1: Bi-PLB-1.2 (antibody)
chain 1: not shown
chain 2: DIQMTQSPSFLSASVGDRVTITCKASQNVGTNVAWYQQKPGKAPKALIYSASYRYSGVPSRFSGSGSGTEFTLTISSLQPEDFATYYCQQYYSYPYTFGQGTKLEIKRTVAAPSVFIFPPSDEQLKSGTASVVCLLNNFYPREAKVQWKVDNALQSGNSQESVTEQDSKDSTYSLSSTLTLSKADYEKHKVYACEVTHQGLSSPVTKSFNRGEC
Kd [1]: 0.28 nM | Kd [2]: 0.83 nM | EC50 [3]: 1.6 nM | IC50 [4]: 1.23 nM | EC50 [5]: 10.3 nM
